B1: TPR t1 (parent)
chain: GACCAAUCUGCCCUCAGAGCUCGAGAACAUCUUCGGAUGCAGAGGAGGCAGGCUUCGGUGGCGCGAUAGCGCCAACGUCCUCAACCUCCAAUGCAUCCCACCACAUGAUGAUGCCUGAAGAGCCUUGGUUUUUUG

Variants of: B1
Experiment: polymerase ribozyme fitness, log enrichment relative to wild type (log ratio); higher = more active; in vitro selection for triplet polymerase activity
Procedure, shortened: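 Fitness is a logarithmic measure of how a genotype enriched relative to the wild type, with replicate averages weighted by inverse variance. The logarithm uses base 2, and enrichment came from Illumina sequencing of input and output libraries. Those libraries were PCR-built, transcribed mutants of each subunit of a heterodimeric triplet polymerase ribozyme, passed through one triplicate in vitro selection round that included frozen incubation at −7 °C, gel excision of extended constructs and streptavidin-bead capture. Genotypes were kept only if they had ≥10 input reads and ≥1 read per output.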

| Variant | polymerase ribozyme fitness (log ratio) |
| --- | --- |
| A18C C56G | -2.15 |
| G17U C34A U112A G120C | -6.92 |
| A16U C73G | -2.59 |
| G19A G51U G60A C124U | -5.85 |
| A18G G117C | -3.04 |
| G17A A50U G51U C114G | -6.63 |
| G19C C22U A46C G61U | -5.14 |
| A18U C62G A121U | -2.71 |
| G19A A41U C62U C94U | -3.23 |
| G17U C34G A50G | -7.24 |
| G17C C73U | -4.07 |
| G17U C53G U96C U126C | -4.06 |
| G17U A18C C53G | -3.98 |
| A18C U32C A37U A50U G60A A83U | -4.99 |
| G17C U106G C115G | 0.318 |
| A18C C88U A95G | -2.41 |
| G19A C70A C94U | -5.61 |
| G19C C101A | -3.27 |
| A18C A37C U112C | -1.3 |
| A18U C124A | -0.753 |
| G17U G47A G71C | -3.03 |
| G17U G47A G71U | -3.24 |
| A18U G44U G110A | -5.32 |
| G19U A43U G122A C124A | -2.23 |

| Variant | polymerase ribozyme fitness (log ratio) |
| --- | --- |
| A18U C72G C115U G128A | -4.57 |
| A16U C62U U81G A121U | -2.2 |
| A18C G110A | -3.98 |
| G19C C62A U96A C124A G128C | -5.42 |
| A18C C115G A119G | 1.41 |
| G17U A18C G57C | -2.66 |
| A18C A83C A91G A111C | -3.03 |
| A18U G36U G48U G69U G120U G122U | -1.69 |
| G19A C73G G77U U112A G128A | -2.41 |
| A18G A68G U116G C123U | -5.7 |
| A16U C56G | -2.56 |
| G17U C31U C64G G93U C123A U130A | -5.64 |
| G19C G39A C53A C76U | -3.34 |
| A16U C85U | -2.77 |
| A18C C88U A90G C114G | -0.417 |
| A18G C56G A103C C115G U129G U130C | -6.47 |
| G19C C20U C31G C89U U109C C123U | -7.81 |
| A18U C98U A111C | -4.18 |
| A16U U96A | -2.28 |
| G17A G48A U87G G117A | -2.48 |
| G17C C56U | -3.79 |
| A18U G69A | -5.06 |
| A18C G45U | -3.69 |
| G17U G48U C70U U78C U87G U112A | -4.19 |

| Variant | polymerase ribozyme fitness (log ratio) |
| --- | --- |
| A18U C20A C97G U109A U116A | -5.44 |
| G17A A18C C114G C124A G135U | -5.65 |
| G19A G63C C76A G93A G110C | -5.44 |
| A18U G42A | -2.11 |
| G17A G61U | -2.6 |
| G17A G61A | -2.34 |
| A18C A43G C85G U96G | -4.07 |
| G19A A50U G113C | -2.01 |
| G17C C80U A83U C115G | -2.85 |
| A18U G60U U92G | -3.05 |
| G17A C53U U54A C64U U92G | -4.58 |
| A18U A24C A27U C40U G63C C89G U116A A121G | -5.65 |
| A18U C123G U129A | -1.83 |
| A16U C70G | -2.98 |
| A18U U116C G117A | -4.83 |
| G17U G48A A50U G60A | -3.1 |
| A16U G47A C56G C86U C101A A121C | -0.796 |
| G17U C20G G52A C73A G113A A119G | -1.98 |
| A18C U87G U132A | -2.91 |
| A18C G52C U96C | -3.84 |
| A16U G51U | -4.76 |
| G17A C49A G58A G110C | -6.79 |
| A18G G127U | -4.06 |
| A18U G39U C104U U112A | -1.88 |

| Variant | polymerase ribozyme fitness (log ratio) |
| --- | --- |
| A18G G63A C115A C123U | -6.7 |
| G17A U55A G77U C115U U125A | -0.205 |
| G19U A111C | -2.32 |
| A18C G39C A41U G60C C123U | -4.26 |
| A16U C40G C56U U112G | -0.767 |
| G17A G39U C49G U78C G117U | -5.4 |
| A18U A43U | -1 |
| A18C A50C G60A A84G U92A | -6.2 |
| A16U U78C | -2.22 |
| A16U C104U | -1.25 |
| G19A | -2.28 |
| G19C | -1.91 |
| G19U | -2.52 |
| G19A C94G | -3.41 |
| A16U G63C G120U U125C | -0.937 |
| G17C C34U G42U C70A C123A | -6.07 |
| A18U C85G | -3.16 |
| A16U G45C C56G A83C | -4.35 |
| A18C C20U A84C U96C G117U G127A | -5.53 |
| A18U U55G C56G | -4.5 |
| G19A C62U C88A A121C | -1.46 |
| A16U G52U G69A C76U U78C A121C | -3.43 |
| A18U G44A U54A U59A C86U U106A | -4.83 |
| A18C G135U | -3.23 |

| Variant | polymerase ribozyme fitness (log ratio) |
| --- | --- |
| G17C A37U C64U U92A | -5.44 |
| A18U G47U G52A | -5.39 |
| A18U C76A | -3.36 |
| A16U G93U C123A U133C | -3.02 |
| A18U A43U C101G | -3.57 |
| A18G U32A C76U C124G | -2.81 |
| A18C G39U C49U G120C | -4.35 |
| G19A C20U U55G G57U C99A G113U | -6.19 |
| A18U A43U U59G G113A U125C | -2.05 |
| G19A G60A | -1.41 |
| A18C G42U U54C C82G | -2.51 |
| G17U U38A G61U U125A | -3.94 |
| A18G U81C C89U | -4.16 |
| G17U U55A G77C C86G C124U | -3.47 |
| A18U G52U G61A | -2.78 |
| G17U G44U C72G C85U U96A A121G C124G | -3.95 |
| A18G G57U G69A C85U G120U | -7.29 |
| A18G A121U | -1.13 |
| A18U A41C C88U U92C C104U A111C U125G U132C | -4.68 |
| G19C A24G A26U C34U A43C G61U C123G | -7.57 |
| A18U C62U C89A U133A | -2.36 |
| G17C C49G C62A | -7.71 |
| A18U U54A A83U | -4.98 |
| G19A C102A | -5.35 |

| Variant | polymerase ribozyme fitness (log ratio) |
| --- | --- |
| G19C A41U U130C | -2.43 |
| G19A C20G U106C G117A | -6.46 |
| A18C G52U A74U A95U A121G | -3.61 |
| A18C U32C A46U A90U C114U | -3.04 |
| A18C C49A U78G C114U | -4.02 |
| G19A G58C G107A C114U | -3.12 |
| G17U C34G A68U C72G C85A C123A | -7.76 |
| A18C C72U U92G A121G | -0.934 |
| A16U C49A G69U | -1.01 |
| G19A G39U G61U G120C U132A | -1.96 |
| G19A A83G C114G G122C | -4.41 |
| A16U G52A C72U | -1.31 |
| A18C G45A C53U G113A | -3.09 |
| G17U C64U U78C | -3.17 |
| G17A A66G | -4.85 |
| G19C A41U C64G C98A U109A | -6.43 |
| A18C G39C A41U C123U | -2.25 |
| G19C C70U U112A G120A U130C | -2.23 |
| G17U G71A | -3.25 |
| A18G C20A C79U G117C | -3.24 |
| G17C U54G C124U | -2.64 |
| G19C G69C C86G A121G | -3.28 |
| A16U U59A C124A | 1.46 |
| G19C C49A A50U G69U C89U U106A C123G U132A U133G | -1.46 |

| Variant | polymerase ribozyme fitness (log ratio) |
| --- | --- |
| A18U G48U C64U C88U | -2.9 |
| G19A C20U | -1.54 |
| G17U C49A G61A | -2.67 |
| A18C C79G A90U G113A | -4.1 |
| A18U A41C | -2.34 |
| G17A A18C C22U G35A A75U C79G A90G C99A C124G | -5.46 |
| A18U G48A C49A C85G U133A | -3.22 |
| G19A C49G G63C G93C A105C G107C G117C | -6.07 |
| A16U G69U C98U A121C U130A | -0.111 |
| A16U C40U U87G U92A | -5.02 |
| A18U C72G | -2.48 |
| G17U C88U G127C | -3.89 |
| G17U C72A | -1.86 |
| G17A C40A A43U | -5.48 |
| A18C G63A U78G | -5.52 |
| G19A C53A U125G | -3.26 |
| A18U A43C A121C | -0.924 |
| A18U C20U U87G | -2.42 |
| G19C C31G C72G G110U U131A | -7.2 |
| G17A C123U | -2.01 |
| G17U A29U C72U | -4.39 |
| A18U G63A | -3.69 |
| A18U G63U | -4.1 |

Source: the RNAGym collection of RNA variant scans (doi:10.1073/pnas.2313332121)
